The target of one assay is T1, Cx43CT (Rattus norvegicus, UniProt P08050).
T1 construct: GST (N, cleaved yes); made in house; host or cells: E. coli BL-21
Kind of assay: Non-biased 12-mer phage display screening against Cx43CT. In kind it is binding. As to conditions: 156 phage plaques sequenced after three rounds; pH 6.5. The method, then:
A “library” of bacteriophage, displaying ˜[…] of 2.7×10^9 random 12-mer peptides (Ph.D.-12™ Phage display peptide library kit; New England BioLabs Inc.) was utilized. Wells in 24-well plates were coated with 15 μg of recombinant CT and blocked with 5 mg/ml BSA. After removing the unbound viruses by washing with Tris buffered saline containing 0.5% tween-20 (TBS-T), low affinity binders were eluted with a solution of TBS-containing Cx43CT at a concentration of 100 μg/ml. High affinity binders were recovered by overlaying the well with a culture of E. coli, to allow the tightly bound phage to infect the bacteria. This culture was amplified and the virus was precipitated with PEG. The amplified product was used for the subsequent round of panning. All steps were conducted at pH 6.5 unless otherwise indicated.
After three rounds of selection and amplification, the phage recovered from the last round of binding were grown on a lawn of E. coli for plaque purification. Each plaque, representing a single clone, was picked and amplified. The phage were isolated and analyzed by DNA sequencing.
The library was presented to Cx43CT. After three rounds of selection and amplification, DNA of 156 phage plaques was purified and sequenced. Of the estimated 2.7×10^9 different sequences in the library, 48 unique sequences were recovered. […]

The target in the next assay is T2, cardiac Cx43 (Rattus norvegicus, UniProt P08050).
T2 construct: from tissue; host or cells: rat heart lysate
The experiment in a line: GST pulldown of Cx43 from rat heart lysate, western blot. Format: binding. The settings on record: GST fusion on glutathione beads, western blot for Cx43. The source says:
cDNA coding for […] (SEQ ID NO:11) (“NL.RXPE”) was cloned in-frame with the cDNA for glutathione S-transferase (“GST”). The resulting fusion protein, GST-NL.RXPE was produced in bacteria, and purified by conventional methods. GST-NL.RXPE was bound to glutathione beads and exposed to a rat heart lysate. After washing of the supernatant, the pellets were heated to separate the proteins from the beads. Two additional proteins were produced in parallel, and used as control: GST alone (not fused to any peptide) and GST fused to RXPE. After exposure to heart lysate, the resulting complexes that were “fished out” by the bait proteins were run on SDS-PAGE, transferred to a nitrocellulose membrane, and probed with an antibody for Cx43. […] It is expected that other peptides of formula A-An interact with Cx43, and may be used in the methods of the present invention.
A general note: In western blotting, separated proteins are transferred to a membrane and probed.

The subject of assay [1] is junctional conductance (Gj) of cell pairs. Kind of assay: Heptanol-induced uncoupling of cell pairs, junctional conductance time course. Format: cell-based. The settings on record: compared with cell pairs without peptide. The method, then: Cells were treated with heptanol to reduce coupling and with NL.RXPE.

T2 sequence (P08050 whole entry): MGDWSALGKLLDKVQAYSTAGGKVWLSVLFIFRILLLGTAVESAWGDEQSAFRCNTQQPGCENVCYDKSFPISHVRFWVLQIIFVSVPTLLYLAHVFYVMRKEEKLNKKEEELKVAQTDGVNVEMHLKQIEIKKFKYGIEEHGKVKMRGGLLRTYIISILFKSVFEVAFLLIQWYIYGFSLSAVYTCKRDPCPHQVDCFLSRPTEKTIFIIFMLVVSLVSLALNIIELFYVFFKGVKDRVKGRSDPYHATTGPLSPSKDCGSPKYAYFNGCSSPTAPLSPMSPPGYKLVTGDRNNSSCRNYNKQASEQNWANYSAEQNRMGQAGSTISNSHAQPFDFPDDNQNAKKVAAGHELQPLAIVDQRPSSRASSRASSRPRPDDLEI
T1 sequence (P08050 255-382): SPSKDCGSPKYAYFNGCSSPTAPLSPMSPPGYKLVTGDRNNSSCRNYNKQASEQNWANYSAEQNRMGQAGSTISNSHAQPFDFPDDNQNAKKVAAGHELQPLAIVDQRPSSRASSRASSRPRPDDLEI

For “PRPTMGNLPDVL (Peptide sequence from phage library)”, in the assay with Cx43CT, the “Number of phage plaques from which the sequence was recovered” value was found to be 45 plaques. For the sequence “SDDLRSPQLHNHMVRRKPRNPR (RXP-containing peptide) [NL.RXPE]”, in the assay with cardiac Cx43, the “Recovery of Cx43 with GST-fused peptide as bait” value was “Cx43 was also recovered”. Besides, the “Rate of heptanol-induced uncoupling (normalized Gj)” value in assay [1] was “uncoupled at a much slower rate”.

For the origin of these results see patent publication US20090075291A1, “PEPTIDE-BASED REGULATION OF GAP JUNCTIONS” (The Research Foundation of State University of New York, priority 2006, published 2009).
